# Experimental data published in patent publication US20100261620A1 (published 2010).
# Residue numbers refer to the chain shown, from its start.
# T1: human CD147 His-tagged N-terminal domain (human, UniProt P35613-2 20-117)
# T1 construct: also called N-terminal human CD147; EMMPRIN; not shown: His tag
# T1 chain: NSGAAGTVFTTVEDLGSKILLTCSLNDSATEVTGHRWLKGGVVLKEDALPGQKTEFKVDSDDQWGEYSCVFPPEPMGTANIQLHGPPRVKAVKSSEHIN
# B1: M456 (antibody, V domains shown)
# VH: QVTLKESGPVLVKPTETLTLTCTVSGFSLSTYGMGVGWIRQPPGKALEWLAHIWWDDVKRYNPALKSRLTISKDTSKSQVVLTMTNMDPVDTATYYCARMGSDYDVWFDYWGQGTLVTVSS
# VL: EIVLTQSPATLSLSPGERATLSCRASKSISKYLAWYQQKPGQAPRLLIYSGSTLQSGIPARFSGSGSGTDFTLTISSLEPEDFAVYYCQQHSYGPYTFGQGTKLEIK
# notes: anti-IL-13, human IgG1
# B2: M460 (anti-IL-13) (antibody, V domains shown)
# VH: B1 VH
# VL: EIVLTQSPATLSLSPGERATLSCRASKSISKYLAWYQQKPGQAPRLLIYSGSTLQSGIPARFSGSGSGTDFTLTISSLEPEDFAVYYCQQHDYPYTFGQGTKLEIK
# B3: M442 (antibody, V domains shown)
# VH: B1 VH
# VL: B2 VL with H91Q, Y93G
# B4: M1295 (antibody, V domains shown)
# VH: B1 VH with M34V, M100L
# VL: B2 VL
# B5: M1286 (antibody, V domains shown)
# VH: B1 VH with M34S, M100L
# VL: B2 VL
# B6: M480 (antibody, V domains shown)
# VH: B1 VH
# VL: B2 VL with H91Q, Y93S
# B7: M1375 (antibody, V domains shown)
# VH: B1 VH with M34Q, M100L
# VL: B2 VL
# B8: M1292 (antibody, V domains shown)
# VH: B1 VH with M34E, M100L
# VL: B2 VL
# B9: M476 (antibody, V domains shown)
# VH: B1 VH
# VL: B1 VL with Y93V
# notes: anti-IL-13, human IgG1
# B10: M479 (antibody, V domains shown)
# VH: B1 VH
# VL: B1 VL with H91P, S92L, Y93D, G94T
# notes: anti-IL-13, human IgG1
# B11: M457 (antibody, V domains shown)
# VH: B1 VH
# VL: B1 VL with S92D, G94A
# notes: anti-IL-13, human IgG1
# B12: M469 (antibody, V domains shown)
# VH: B1 VH
# VL: B1 VL with S92D, Y93W, G94E
# notes: anti-IL-13, human IgG1
# B13: M471 (antibody, V domains shown)
# VH: B1 VH
# VL: B1 VL with H91P, S92I, Y93D, G94A
# notes: anti-IL-13, human IgG1
# B14: M474 (antibody, V domains shown)
# VH: B1 VH
# VL: B1 VL with S92D, Y93L
# notes: anti-IL-13, human IgG1
# B15: M477 (antibody, V domains shown)
# VH: B1 VH
# VL: B1 VL with Y93S
# notes: anti-IL-13, human IgG1
# B16: M478 (antibody, V domains shown)
# VH: B1 VH
# VL: B1 VL with S92N, Y93H
# notes: anti-IL-13, human IgG1
# B17: M482 (antibody, V domains shown)
# VH: B1 VH
# VL: B1 VL with S92L, Y93D, G94S
# notes: anti-IL-13, human IgG1; printed changes are the same as for M470
# B18: M468 (antibody, V domains shown)
# VH: B1 VH
# VL: B1 VL with S92F, Y93W
# notes: anti-IL-13, human IgG1
# B19: M1268 (antibody, V domains shown)
# VH: B1 VH with M34V, M100L
# VL: B1 VL with S92N, Y93E, G94Y
# notes: anti-IL-13, human IgG1; text gives the Met positions as 34 and 100; copies: 2 + 2
# B20: M466 (antibody, V domains shown)
# VH: B1 VH
# VL: B1 VL with S92D, Y93W, G94S
# notes: anti-IL-13, human IgG1
# B21: M472 (antibody, V domains shown)
# VH: B1 VH
# VL: B1 VL with H91P, S92L, Y93D, G94S
# notes: anti-IL-13, human IgG1
# B22: M467 (antibody, V domains shown)
# VH: B1 VH
# VL: B1 VL with Y93W, G94A
# notes: anti-IL-13, human IgG1
# B23: M463 (antibody, V domains shown)
# VH: B1 VH
# VL: B1 VL with H91Q, S92D, Y93L
# notes: anti-IL-13, human IgG1
# B24: M464 (antibody, V domains shown)
# VH: B1 VH
# VL: B1 VL with S92E, Y93W
# notes: anti-IL-13, human IgG1
# B25: M461 (antibody, V domains shown)
# VH: B1 VH
# VL: B1 VL with Y93I
# notes: anti-IL-13, human IgG1
# B26: M465 (antibody, V domains shown)
# VH: B1 VH
# VL: B1 VL with S92D, Y93N, G94S
# notes: anti-IL-13, human IgG1
# B27: M459 (antibody, V domains shown)
# VH: B1 VH
# VL: B1 VL with H91P, S92L, Y93E, G94A
# notes: anti-IL-13, human IgG1
# B28: M462 (antibody, V domains shown)
# VH: B1 VH
# VL: B1 VL with S92N, Y93F
# notes: anti-IL-13, human IgG1
# B29: M470 (antibody, V domains shown)
# VH: B1 VH
# VL: B1 VL with S92L, Y93D, G94S
# notes: anti-IL-13, human IgG1
# B30: M473 (antibody, V domains shown)
# VH: B1 VH
# VL: B1 VL with S92D, Y93R, G94D
# notes: anti-IL-13, human IgG1
# B31: M475 (antibody, V domains shown)
# VH: B1 VH
# VL: B1 VL with S92L, Y93M
# notes: anti-IL-13, human IgG1
# B32: 4A5 Fab (Fab, V domains shown)
# VH: EVQLQQSGPELVKPGASVKISCKASGYTFTDYYMNWVKQSHGKSLEWIGGINPNNGGTSYNQKFKGKATLTVDKSSSTAYMELRSLTSEDSAVYYCARNDGYRGYAMDYWGQGTSVTVSS
# VL: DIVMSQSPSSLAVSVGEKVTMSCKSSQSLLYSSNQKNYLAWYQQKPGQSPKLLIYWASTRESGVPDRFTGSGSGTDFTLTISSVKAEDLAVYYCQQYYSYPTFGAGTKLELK
# notes: mouse variable domains; also called 4A5 chimera; chimeric 4A5 Fab
# Biological target: IL-13 (Homo sapiens (Human), UniProt P35225 35-146, limits assumed)
# Sequence (P35225 35-146 limits assumed): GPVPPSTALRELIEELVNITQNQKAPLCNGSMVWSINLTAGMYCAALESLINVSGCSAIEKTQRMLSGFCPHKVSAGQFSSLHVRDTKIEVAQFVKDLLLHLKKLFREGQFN
# Test: Biacore
Kd [nM],koff [s⁻¹],kon [M⁻¹ s⁻¹],Binder
0.148,0.000182,1.24e+06,B1
0.008,8e-06,1.03e+06,B2
0.04,5.3e-05,1.32e+06,B3
0.015,1.8e-05,1.2e+06,B4
0.009,1.2e-05,1.28e+06,B5
0.021,3.9e-05,1.86e+06,B6
0.024,2.7e-05,1.1e+06,B7
0.008,8e-06,1.05e+06,B8
0.315,0.000321,1.02e+06,B9
0.192,0.00024,1.25e+06,B10
0.193,0.000214,1.11e+06,B11
0.1,0.000143,1.43e+06,B12
0.253,0.000364,1.44e+06,B13
0.365,0.000348,950000,B14
0.495,0.00048,970000,B15
0.208,0.000247,1.19e+06,B16

Kd [nM],koff [s⁻¹],kon [M⁻¹ s⁻¹],Binder
0.296,0.0003,1.02e+06,B17
0.094,0.0001,1.06e+06,B18
0.621,0.001,1.61e+06,B19
0.225,0.000219,970000,B20
0.259,0.000375,1.44e+06,B21
0.452,0.000455,1e+06,B22
0.037,6.3e-05,1.7e+06,B23
0.055,7.1e-05,1.29e+06,B24
0.193,0.000257,1.33e+06,B25
0.306,0.000336,1.1e+06,B26
0.356,0.000449,1.26e+06,B27
0.366,0.000417,1.14e+06,B28
0.239,0.000311,1.3e+06,B29
0.312,0.000403,1.29e+06,B30
0.187,0.000213,1.14e+06,B31

# Biological target: T1, human CD147 His-tagged N-terminal domain
# Test: SPR, CD147 coupled to the surface
row,Kd [nM],Binder
1,120,B32
